Assay results published in article PMC11187117, “Structure of the endosomal CORVET tethering complex” (Nature Communications, 2024).

Key:
Test in all cases: cryo-EM structure; single-particle cryo-EM of the hexameric CORVET co-expressed in yeast and purified by 3xFLAG on Vps8 and SEC; about 0.8 mg/ml; consensus map 4.6 Å, local refinements to 3.8 Å
Settings in all cases: both partners purified
[1] = target: T1, Vps11 (CORVET and HOPS core subunit) (yeast, UniProt P12868 1-1029)
T1 construct: Vps11, yeast, core subunit shared by CORVET and HOPS
T1 sequence: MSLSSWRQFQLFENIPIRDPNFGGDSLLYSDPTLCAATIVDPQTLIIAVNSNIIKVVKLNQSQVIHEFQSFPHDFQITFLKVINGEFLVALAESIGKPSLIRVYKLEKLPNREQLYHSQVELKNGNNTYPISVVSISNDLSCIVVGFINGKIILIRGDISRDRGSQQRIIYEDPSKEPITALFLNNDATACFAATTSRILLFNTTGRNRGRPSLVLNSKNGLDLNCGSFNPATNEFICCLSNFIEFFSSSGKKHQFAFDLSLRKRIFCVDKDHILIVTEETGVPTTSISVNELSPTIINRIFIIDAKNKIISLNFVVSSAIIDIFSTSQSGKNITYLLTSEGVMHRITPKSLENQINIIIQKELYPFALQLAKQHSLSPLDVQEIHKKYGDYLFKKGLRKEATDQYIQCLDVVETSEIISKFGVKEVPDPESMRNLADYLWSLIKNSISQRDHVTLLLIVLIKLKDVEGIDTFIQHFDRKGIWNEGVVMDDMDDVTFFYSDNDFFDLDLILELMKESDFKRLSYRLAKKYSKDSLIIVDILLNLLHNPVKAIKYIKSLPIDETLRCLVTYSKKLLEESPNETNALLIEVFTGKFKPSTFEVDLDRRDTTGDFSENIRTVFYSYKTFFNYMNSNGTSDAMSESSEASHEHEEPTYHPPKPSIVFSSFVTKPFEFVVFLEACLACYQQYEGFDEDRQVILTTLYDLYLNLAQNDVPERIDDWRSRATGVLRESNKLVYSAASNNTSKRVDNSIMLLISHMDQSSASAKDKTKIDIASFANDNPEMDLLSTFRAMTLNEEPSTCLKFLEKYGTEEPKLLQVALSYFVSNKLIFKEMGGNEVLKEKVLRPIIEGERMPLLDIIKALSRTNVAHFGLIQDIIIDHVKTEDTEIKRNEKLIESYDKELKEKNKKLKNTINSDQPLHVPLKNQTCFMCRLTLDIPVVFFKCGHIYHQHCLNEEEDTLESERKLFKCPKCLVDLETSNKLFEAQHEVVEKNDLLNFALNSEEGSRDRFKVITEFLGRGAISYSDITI

Vps3 (CORVET subunit) = target: T2, Vps3 (CORVET subunit) (yeast, UniProt P23643 1-1011)
T2 construct: UniProt P23643 printed for its AlphaFold model; N-terminal half (with the β-propeller) was removed from the deposited model; source: yeast lysate in the Vps8-ALFA pull-downs
T2 sequence: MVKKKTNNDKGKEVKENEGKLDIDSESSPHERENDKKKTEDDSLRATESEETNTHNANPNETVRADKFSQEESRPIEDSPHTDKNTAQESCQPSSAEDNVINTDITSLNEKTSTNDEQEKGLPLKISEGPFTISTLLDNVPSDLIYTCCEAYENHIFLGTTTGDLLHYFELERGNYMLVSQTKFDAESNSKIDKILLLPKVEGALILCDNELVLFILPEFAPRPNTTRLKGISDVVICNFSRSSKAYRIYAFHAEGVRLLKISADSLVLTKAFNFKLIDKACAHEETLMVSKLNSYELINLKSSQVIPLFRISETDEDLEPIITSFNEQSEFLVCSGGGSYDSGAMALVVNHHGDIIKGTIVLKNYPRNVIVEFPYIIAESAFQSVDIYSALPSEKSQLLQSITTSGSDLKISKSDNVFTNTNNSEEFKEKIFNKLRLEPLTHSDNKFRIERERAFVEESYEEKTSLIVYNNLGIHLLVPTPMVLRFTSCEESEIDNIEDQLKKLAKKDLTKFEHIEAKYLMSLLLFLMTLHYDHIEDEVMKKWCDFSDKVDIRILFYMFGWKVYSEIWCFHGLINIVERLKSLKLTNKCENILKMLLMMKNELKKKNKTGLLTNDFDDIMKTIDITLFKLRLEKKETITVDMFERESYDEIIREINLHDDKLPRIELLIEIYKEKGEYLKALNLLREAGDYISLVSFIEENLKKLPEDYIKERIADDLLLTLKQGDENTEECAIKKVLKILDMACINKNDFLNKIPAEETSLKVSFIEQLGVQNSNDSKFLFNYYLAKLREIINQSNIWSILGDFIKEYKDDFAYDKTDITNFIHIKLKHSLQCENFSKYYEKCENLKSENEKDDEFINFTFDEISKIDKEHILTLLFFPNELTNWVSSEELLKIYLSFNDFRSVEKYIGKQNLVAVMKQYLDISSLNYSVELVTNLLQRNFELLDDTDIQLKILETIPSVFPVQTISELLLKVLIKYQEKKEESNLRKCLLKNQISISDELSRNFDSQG

[2] = target: T3, Vps8 with 3xFLAG tag (CORVET subunit) (yeast, UniProt P39702 1-1274)
T3 construct: UniProt P39702 printed for its AlphaFold model
T3 sequence: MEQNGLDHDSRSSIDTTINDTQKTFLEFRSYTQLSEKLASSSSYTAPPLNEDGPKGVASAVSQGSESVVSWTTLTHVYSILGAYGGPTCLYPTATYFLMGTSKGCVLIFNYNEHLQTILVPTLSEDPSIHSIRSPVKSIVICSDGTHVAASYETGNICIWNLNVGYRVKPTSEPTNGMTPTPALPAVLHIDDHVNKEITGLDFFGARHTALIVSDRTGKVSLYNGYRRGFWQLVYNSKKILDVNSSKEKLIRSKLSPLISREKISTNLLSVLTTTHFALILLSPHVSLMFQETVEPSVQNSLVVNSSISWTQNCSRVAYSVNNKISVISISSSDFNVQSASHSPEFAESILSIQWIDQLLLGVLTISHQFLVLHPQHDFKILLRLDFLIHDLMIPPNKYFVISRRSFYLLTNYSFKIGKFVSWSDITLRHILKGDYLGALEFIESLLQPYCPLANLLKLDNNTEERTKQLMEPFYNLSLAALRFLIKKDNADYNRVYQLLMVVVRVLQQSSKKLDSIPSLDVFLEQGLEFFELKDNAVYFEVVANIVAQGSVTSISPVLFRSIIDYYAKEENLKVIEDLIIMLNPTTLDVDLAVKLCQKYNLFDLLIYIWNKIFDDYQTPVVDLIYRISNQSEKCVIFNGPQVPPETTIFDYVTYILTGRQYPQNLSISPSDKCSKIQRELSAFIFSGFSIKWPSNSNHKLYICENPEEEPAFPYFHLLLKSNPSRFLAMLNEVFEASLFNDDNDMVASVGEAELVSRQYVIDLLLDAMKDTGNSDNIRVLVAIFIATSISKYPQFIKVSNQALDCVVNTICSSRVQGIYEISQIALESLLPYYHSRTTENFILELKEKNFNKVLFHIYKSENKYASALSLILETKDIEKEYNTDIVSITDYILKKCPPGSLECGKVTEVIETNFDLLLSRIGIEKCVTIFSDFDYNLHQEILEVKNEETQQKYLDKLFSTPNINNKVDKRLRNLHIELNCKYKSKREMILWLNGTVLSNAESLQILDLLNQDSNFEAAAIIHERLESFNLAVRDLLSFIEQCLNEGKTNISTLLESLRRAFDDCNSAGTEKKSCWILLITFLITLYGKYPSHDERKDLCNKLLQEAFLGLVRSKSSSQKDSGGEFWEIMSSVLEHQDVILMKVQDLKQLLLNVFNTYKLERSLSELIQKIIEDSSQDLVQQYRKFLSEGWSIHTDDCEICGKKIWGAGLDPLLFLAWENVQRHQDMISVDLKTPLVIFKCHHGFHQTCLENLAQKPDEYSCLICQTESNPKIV

Measured: binding result

B1: Vps18 (CORVET and HOPS core subunit) (natural protein, yeast)
chain: MIKTRIEEVQLQFLTGNTELTHLKVSNDQLIVTTQRTIYRINLQDPAIVNHFDCPLSKELETIMNVHVSPMGSVILIRTNFGRYMLLKDGEFTQLNKIKNLDLSSLHWINETTFLMGIKKTPKLYRVELTGKDITTKLWYENKKLSGGIDGIAYWEGSLLLTIKDNILYWRDVTNMKFPLVLPDESEQFERLKHHAIKKFDSYNGLFAWVTSNGIVFGDLKEKQMEKDPASNNFGKFLSSSKVLLNFELPDYQNDKDHLIKDIVLTAFHILLLRKNTVTMVSQLNNDVVFHETIPRHQLTGSNTDSNEKFLGLVRDSVKETFWCFSNINVFEIIIENEPNSVWNLLVRDNKFDKALSLKGLTVREIESVKLSKAMYLFHTAKDFHSAAQTLGSMKDLSHFGEIALNFLQIKDYNDLNVILIKQLDNVPWKSTQVVLSSWIIWNFMKQLNDIELKINTTKPASTDEDNLLNWNLNLKEKSNELTKFLESHLEKLDNETVYQIMSKQNRQNELLIFASLINDMKFLLSFWIDQGNWYESLKILLTINNHDLVYKYSLILLLNSPEATVSTWMKIKDLDPNKLIPTILKFFTNWQNNSKLITNISEYPENYSLTYLKWCVREVPKMCNPIVYNSILYMMITDPRNDMILENDIIKFMKSNENKYDLNFQLRLSLKFKKTKTSIFLLTRLNLFEDAIDLALKNNLIDDCKVIVNDEILIEDYKLRKRLWLKIAKHLLLSMKDIDIKQLIRTILNDSNEILTIKDLLPFFNEYTTIANLKEELIKFLENHNMKMNEISEDIINSKNLKVEINTEISKFNEIYRILEPGKSCDECGKFLQIKKFIVFPCGHCFHWNCIIRVILNSNDYNLRQKTENFLKAKSKHNLNDLENIIVEKCGLCSDININKIDQPISIDETELAKWNE
notes: Vps18, yeast, core subunit shared by CORVET and HOPS
binds: [1] | Vps3 (CORVET subunit) | [2]
